# Results published in the supplement of paper PMC9112550, “Optimization of the antimicrobial peptide Bac7 by deep mutational scanning” (BMC Biology, 2022).
# System: Escherichia coli TOP10
# Assay: shrunken log2 fold change of peptide-encoding DNA abundance (4.5 h post-induction vs induction); higher = less antimicrobial activity (less host growth inhibition)
# Conditions: time post-induction: 4.5 h; library: site-saturation at positions 5, 18, 19, 20
# 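Also: peptides expressed intracellularly from a pBAD plasmid library in pooled LB shake-flask culture, induced with 0.3% L-arabinose, DNA abundance read by NGS, three biological replicates, DESeq2 with apeglm shrinkage.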
row,Sequence,shrunken log2 fold change
1,RRIRMRPPRLPRPRPRPRNGPRP,0.833
2,RRIRMRPPRLPRPRPRPRNKPRP,0.667
3,RRIRMRPPRLPRPRPRPRNLPRP,0.0196
4,RRIRMRPPRLPRPRPRPRPEPRP,1.35
5,RRIRMRPPRLPRPRPRPRPMPRP,0.935
6,RRIRMRPPRLPRPRPRPRRWPRP,0.881
7,RRIRMRPPRLPRPRPRPRTYPRP,-0.00485
8,RRIRMRPPRLPRPRPRPRYGPRP,0.0305
9,RRIRMRPPRLPRPRPRPSACPRP,1.99
10,RRIRMRPPRLPRPRPRPSAKPRP,0.0449
11,RRIRMRPPRLPRPRPRPSCNPRP,0.197
12,RRIRMRPPRLPRPRPRPSCQPRP,0.166
13,RRIRMRPPRLPRPRPRPSDNPRP,0.0409
14,RRIRMRPPRLPRPRPRPSDVPRP,0.141
15,RRIRMRPPRLPRPRPRPSFAPRP,0.301
16,RRIRMRPPRLPRPRPRPSFKPRP,-0.0765
17,RRIRMRPPRLPRPRPRPSFMPRP,0.0821
18,RRIRMRPPRLPRPRPRPSGHPRP,0.0431
19,RRIRMRPPRLPRPRPRPSGPPRP,0.205
20,RRIRMRPPRLPRPRPRPSGQPRP,0.602
21,RRIRMRPPRLPRPRPRPSHFPRP,-0.274
22,RRIRMRPPRLPRPRPRPSHQPRP,-0.0291

row,Sequence,shrunken log2 fold change
1,RRIRMRPPRLPRPRPRPSKEPRP,0.203
2,RRIRMRPPRLPRPRPRPSKPPRP,0.0519
3,RRIRMRPPRLPRPRPRPSMKPRP,0.0872
4,RRIRMRPPRLPRPRPRPSNSPRP,-0.192
5,RRIRMRPPRLPRPRPRPSPHPRP,0.18
6,RRIRMRPPRLPRPRPRPSQSPRP,0.53
7,RRIRMRPPRLPRPRPRPSRFPRP,0.253
8,RRIRMRPPRLPRPRPRPSRKPRP,0.148
9,RRIRMRPPRLPRPRPRPSSHPRP,0.0506
10,RRIRMRPPRLPRPRPRPSTVPRP,-0.0552
11,RRIRMRPPRLPRPRPRPSTYPRP,-0.347
12,RRIRMRPPRLPRPRPRPSWAPRP,0.203
13,RRIRMRPPRLPRPRPRPSWIPRP,0.0389
14,RRIRMRPPRLPRPRPRPTAMPRP,1.14
15,RRIRMRPPRLPRPRPRPTCLPRP,0.413
16,RRIRMRPPRLPRPRPRPTCVPRP,0.424
17,RRIRMRPPRLPRPRPRPTDQPRP,1.46
18,RRIRMRPPRLPRPRPRPTDRPRP,0.894
19,RRIRMRPPRLPRPRPRPTEHPRP,0.443
20,RRIRMRPPRLPRPRPRPTETPRP,0.511
21,RRIRMRPPRLPRPRPRPTFHPRP,-0.00995
22,RRIRMRPPRLPRPRPRPTGMPRP,0.136

row,Sequence,shrunken log2 fold change
1,RRIRMRPPRLPRPRPRPTGSPRP,1.34
2,RRIRMRPPRLPRPRPRPTLGPRP,0.685
3,RRIRMRPPRLPRPRPRPTLQPRP,0.13
4,RRIRMRPPRLPRPRPRPTNMPRP,-0.0158
5,RRIRMRPPRLPRPRPRPTNSPRP,-0.302
6,RRIRMRPPRLPRPRPRPTPDPRP,1.39
7,RRIRMRPPRLPRPRPRPTQHPRP,0.717
8,RRIRMRPPRLPRPRPRPTRMPRP,0.685
9,RRIRMRPPRLPRPRPRPTSWPRP,0.834
10,RRIRMRPPRLPRPRPRPTWLPRP,0.266
11,RRIRMRPPRLPRPRPRPTWWPRP,0.596
12,RRIRMRPPRLPRPRPRPTYQPRP,-0.063
13,RRIRMRPPRLPRPRPRPTYSPRP,0.0196
14,RRIRMRPPRLPRPRPRPVDCPRP,0.029
15,RRIRMRPPRLPRPRPRPVDMPRP,0.185
16,RRIRMRPPRLPRPRPRPVEFPRP,-0.0638
17,RRIRMRPPRLPRPRPRPVGLPRP,0.383
18,RRIRMRPPRLPRPRPRPVGQPRP,-0.00911
19,RRIRMRPPRLPRPRPRPVGWPRP,1.37
20,RRIRMRPPRLPRPRPRPVHFPRP,0.602
21,RRIRMRPPRLPRPRPRPVHRPRP,0.872
22,RRIRMRPPRLPRPRPRPVIGPRP,-0.0424

row,Sequence,shrunken log2 fold change
1,RRIRMRPPRLPRPRPRPVIVPRP,-0.313
2,RRIRMRPPRLPRPRPRPVKFPRP,0.0501
3,RRIRMRPPRLPRPRPRPVKSPRP,0.023
4,RRIRMRPPRLPRPRPRPVLDPRP,0.331
5,RRIRMRPPRLPRPRPRPVLEPRP,0.426
6,RRIRMRPPRLPRPRPRPVLGPRP,0.741
7,RRIRMRPPRLPRPRPRPVLNPRP,-0.232
8,RRIRMRPPRLPRPRPRPVNVPRP,0.0663
9,RRIRMRPPRLPRPRPRPVNWPRP,0.223
10,RRIRMRPPRLPRPRPRPVQIPRP,0.378
11,RRIRMRPPRLPRPRPRPVQPPRP,0.229
12,RRIRMRPPRLPRPRPRPVRLPRP,0.116
13,RRIRMRPPRLPRPRPRPVTWPRP,0.216
14,RRIRMRPPRLPRPRPRPVVTPRP,0.0538
15,RRIRMRPPRLPRPRPRPVWEPRP,0.4
16,RRIRMRPPRLPRPRPRPVWNPRP,-0.0831
17,RRIRMRPPRLPRPRPRPVWTPRP,0.386
18,RRIRMRPPRLPRPRPRPVYCPRP,0.00982
19,RRIRMRPPRLPRPRPRPVYTPRP,0.194
20,RRIRMRPPRLPRPRPRPVYWPRP,0.0687
21,RRIRMRPPRLPRPRPRPWCLPRP,-0.208
22,RRIRMRPPRLPRPRPRPWDIPRP,0.232

row,Sequence,shrunken log2 fold change
1,RRIRMRPPRLPRPRPRPWDRPRP,0.158
2,RRIRMRPPRLPRPRPRPWFEPRP,-0.13
3,RRIRMRPPRLPRPRPRPWGDPRP,0.0652
4,RRIRMRPPRLPRPRPRPWGGPRP,0.414
5,RRIRMRPPRLPRPRPRPWGSPRP,0.0578
6,RRIRMRPPRLPRPRPRPWIFPRP,0.0735
7,RRIRMRPPRLPRPRPRPWILPRP,-0.201
8,RRIRMRPPRLPRPRPRPWKLPRP,-0.133
9,RRIRMRPPRLPRPRPRPWLDPRP,0.0568
10,RRIRMRPPRLPRPRPRPWLLPRP,-0.0297
11,RRIRMRPPRLPRPRPRPWNDPRP,-0.112
12,RRIRMRPPRLPRPRPRPWNKPRP,-0.535
13,RRIRMRPPRLPRPRPRPWRAPRP,0.595
14,RRIRMRPPRLPRPRPRPWRHPRP,0.0256
15,RRIRMRPPRLPRPRPRPWRIPRP,-0.0845
16,RRIRMRPPRLPRPRPRPWRTPRP,0.324
17,RRIRMRPPRLPRPRPRPWSKPRP,0.0409
18,RRIRMRPPRLPRPRPRPWSNPRP,-0.254
19,RRIRMRPPRLPRPRPRPWSPPRP,-0.508
20,RRIRMRPPRLPRPRPRPWSTPRP,-0.144
21,RRIRMRPPRLPRPRPRPWTSPRP,0.0303
